Here are results for 18 molecules from US20040176568A1 (GENERAL HOSPITAL, published 2004).

Read-outs that look alike come from different tables or passages of the source. No end group written: not given here. Where only a bound is given, the exact number is not on record here.

The IC50 is the midpoint of a concentration-inhibition curve. The low end stands for inhibition by little substance, the high end for a need for much substance.

Assay [1] has as its target T1, human PTH-1 receptor (human, UniProt Q03431 27-593).
T1 sequence (looked up): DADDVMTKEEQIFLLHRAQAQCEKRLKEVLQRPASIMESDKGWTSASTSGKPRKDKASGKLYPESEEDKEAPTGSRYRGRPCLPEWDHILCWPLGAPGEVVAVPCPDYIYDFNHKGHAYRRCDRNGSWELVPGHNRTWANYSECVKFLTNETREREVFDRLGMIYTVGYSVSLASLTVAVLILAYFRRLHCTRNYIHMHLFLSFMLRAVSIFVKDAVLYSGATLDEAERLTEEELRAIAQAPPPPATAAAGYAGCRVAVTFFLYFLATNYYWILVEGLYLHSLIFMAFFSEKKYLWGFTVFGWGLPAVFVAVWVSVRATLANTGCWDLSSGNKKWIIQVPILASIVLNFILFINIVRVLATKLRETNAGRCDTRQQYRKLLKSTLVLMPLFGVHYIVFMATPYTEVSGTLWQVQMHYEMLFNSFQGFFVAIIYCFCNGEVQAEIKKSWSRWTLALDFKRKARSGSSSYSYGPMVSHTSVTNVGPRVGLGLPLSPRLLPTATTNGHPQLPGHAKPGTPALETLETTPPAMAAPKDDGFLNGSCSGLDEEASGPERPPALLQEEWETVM
The experiment in a line: cell-based or functional assay.

Assay [2] has as its target T1, human PTH-1 receptor. Put plainly: radioligand binding, HKRK B7 cells (human PTH-1 receptor).
The target of assay [3] is T1, human PTH-1 receptor. Put plainly: cell-based or functional assay. The source holds these as a separate data set.
Assay [4] addresses T1, human PTH-1 receptor. Put plainly: radioligand competition, HKRK B7 cells (human PTH-1 receptor). The text has this:
(§1) Cell layers were washed three times before solubilization for determination of cell-associated radioactivity.
For orientation: In a radioligand displacement assay an active substance lowers the binding of a labelled ligand.

Assay [5] concerns the target T2, rat PTH-1 receptor (rat, UniProt P25961 27-591).
T2 construct: whole, on cells; recombinant receptor on cells; also called rat PTH/PTHrP receptor
T2 sequence (looked up): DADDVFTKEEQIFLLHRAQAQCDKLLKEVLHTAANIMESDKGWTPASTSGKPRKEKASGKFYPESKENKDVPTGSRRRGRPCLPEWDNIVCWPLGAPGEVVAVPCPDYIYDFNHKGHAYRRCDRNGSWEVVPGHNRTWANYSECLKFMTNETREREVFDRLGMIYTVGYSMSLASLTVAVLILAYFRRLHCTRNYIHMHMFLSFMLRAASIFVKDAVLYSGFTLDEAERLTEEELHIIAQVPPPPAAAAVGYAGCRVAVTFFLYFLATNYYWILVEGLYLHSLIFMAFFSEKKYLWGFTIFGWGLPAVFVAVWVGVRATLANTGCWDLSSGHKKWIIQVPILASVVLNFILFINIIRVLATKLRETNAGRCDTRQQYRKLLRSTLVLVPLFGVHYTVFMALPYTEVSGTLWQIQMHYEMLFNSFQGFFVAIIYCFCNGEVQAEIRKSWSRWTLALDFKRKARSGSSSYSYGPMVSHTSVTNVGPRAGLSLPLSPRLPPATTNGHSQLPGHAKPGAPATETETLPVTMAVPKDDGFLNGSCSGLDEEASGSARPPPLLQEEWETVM
Put plainly: radioligand competition, EW5 cells (rat PTH-1 receptor).
From the text: as §1

Assay [6] addresses T2, rat PTH-1 receptor. The experiment in a line: cell-based or functional assay.
Assay [7] addresses T2, rat PTH-1 receptor. The experiment in a line: radioligand competition, EW5 cells (rat) against HKRK B7 cells (human).
From the text: as §1

The target of assay [8] is T1, human PTH-1 receptor. Put plainly: cell-based or functional assay. The source holds these as a separate data set.

In the assay with human PTH-1 receptor [1], “desamino[Ala^1]hPTH-(1-34) (from UniProt P01270 32-65) (peptide)” yielded a PLC Activity (% Basal), 1000 nM peptide, transfected HEK-293 cells of 106 % Basal.

As to “desamino[Gly^1]hPTH-(1-34) (from UniProt P01270 32-65) (peptide)”, the PLC Activity (% Basal), 1000 nM peptide, transfected HEK-293 cells with human PTH-1 receptor [1] amounted to 108 % Basal.

On to “hPTHrP(1-36) (from UniProt P12272 37-72) (peptide)”, for which, in the assay with human PTH-1 receptor [1], the PLC activation, percent of basal at 1000 nM peptide, HKRK B7 cells (percent of basal) stood at 178.

Turning to “[Tyr^0]hPTH-(1-34) (from UniProt P01270 32-65) (peptide)”, in the assay with human PTH-1 receptor [1], the PLC activity, percent of basal at 1000 nM peptide (percent of basal) worked out at 105.

“desamino-hPTHrP(1-36) (from UniProt P12272 37-72) (peptide)”: the PLC activation, percent of basal at 1000 nM peptide, HKRK B7 cells (percent of basal) with human PTH-1 receptor [1] is 101.

On to “^125I-[Nle^8,21, Tyr^34]rat PTH-(1-34) (from UniProt P04089 32-65) (peptide)”, for which, in the assay with human PTH-1 receptor [2], the cell-associated radioactivity, basal (no competitor) was determined as 25500 cpm/well.

Take SVSEIQLMHNLGKHLNSMERVEWLRK-NH2 [hPTH-(1-26)]: the “fold loss of AC potency against hPTH-(1-27)” value with human PTH-1 receptor [3] was found to be 10 fold.

As for GVSEIQLMHNLGKHLNSMERVEWLRKKL-NH2 (Analog of hPTH-(1-28)) [[Gly^1]hPTH-(1-28)], the “fold impairment of binding by the Gly^1 substitution (against hPTH-(1-28))” value in the assay with human PTH-1 receptor [4] was roughly 3 fold. Also, the “fold enhancement of binding affinity by the Gly^1 substitution (against hPTH-(1-28))” value in the assay with rat PTH-1 receptor [5] was 2 fold.

GVSEIQLMHNLGKHLNSMRRVEWLRKKL-NH2 (Analog of hPTH-(1-28)) [[Gly^1,Arg^19]hPTH-(1-28)]: in the assay with human PTH-1 receptor [4], the “fold impairment of binding by the Gly^1 substitution (against [Arg^19]hPTH-(1-28))” value was roughly 3 fold, the “fold improvement in binding affinity over [Gly^1]hPTH-(1-28)” value is 5 fold, the “fold lower binding affinity than hPTH(1-34)” value was found to be 30 fold and the “fold reduction of binding relative to hPTH-(1-34)” value was roughly 40 fold. For the same molecule, in the assay with human PTH-1 receptor [3], the “fold reduction of PLC potency, HKRK B7 cells” value was roughly 100 fold and the “selectivity for activation of AC (vs. PLC), relative to hPTH-(1-34)” value is greater than 40 fold. For the same molecule, in the assay with rat PTH-1 receptor [6], the “fold impairment of EC50 for AC relative to hPTH-(1-34), EW5 cells” value was roughly 6 fold and the “selectivity for AC vs. PLC” value was greater than 10 fold. In addition, the “fold greater binding affinity than for the human PTH-1 receptor” value with rat PTH-1 receptor [7] came to 10 fold. In the assay with rat PTH-1 receptor [5], the “fold enhancement of binding affinity by the Gly^1 substitution (against [Arg^19]hPTH-(1-28))” value turned out to be 2 fold, the “fold impairment of binding affinity relative to hPTH-(1-34)” value is roughly 6 fold and the “fold lower binding affinity than hPTH-(1-34)” value came to 7 fold.

As to SVSEIQLMHNLGKHLNSMERVEWLRKK-NH2 [hPTH-(1-27)], in the assay with human PTH-1 receptor [3], the “EC50 of AC activation, HKRK B7 cells” value is 100 nM and the “fold loss of AC activity on removal of Leu^28” value was roughly 100 fold. Further, the “PLC Activity (% Basal), 1000 nM peptide, transfected HEK-293 cells” value (“PLC Activity (% Basal), 1000 nM peptide” for short) in the assay with human PTH-1 receptor [8] is 95 % Basal.

SVSEIQLMHNLGKHLNSMERVEWLRKKL-NH2 [hPTH-(1-28)] registered an IC50 in the assay with human PTH-1 receptor [4] of 1000 nM. For the same molecule, in the assay with human PTH-1 receptor [3], the “EC50 of AC activation, HKRK B7 cells” value amounted to 1 nM; the “EC50 of PLC activation, HKRK B7 cells” value is 6000 nM; the “fold loss of PLC potency against hPTH-(1-29)” value is roughly 5 fold. Moreover, the binding result with rat PTH-1 receptor [5] is “binds”. For the same molecule, the “PLC Activity (% Basal), 1000 nM peptide” value with human PTH-1 receptor [8] came out at 305 % Basal.

Regarding AVSEIQLMHNLGKHLNSMRRVEWLRKKL-NH2 [[Ala^1,Arg^19]hPTH-(1-28)], in the assay with human PTH-1 receptor [3], the “EC50 for PLC activation, HKRK B7 cells” value stood at 200 nM and the “fold improvement of EC50 for PLC activation over [Ala^1]hPTH-(1-28)” value is 5 fold.

Turning to AVSEIQLMHNLGKHLNSMERVEWLRKKL-NH2 [[Ala^1]hPTH-(1-28)], the “EC50 for PLC activation, HKRK B7 cells” value in the assay with human PTH-1 receptor [3] turned out to be 1000 nM.

For SVSEIQLMHNLGKHLNSMRRVEWLRKKL-NH2 (Analog of hPTH-(1-28)) [[Arg^19]hPTH-(1-28)], in the assay with human PTH-1 receptor [4], the IC50 turned out to be 100 nM. In the assay with human PTH-1 receptor [3], the “EC50 of PLC activation, HKRK B7 cells” value was found to be 300 nM.

With VSEIQLMHNLGKHLNSMERVEWLRKKLQDVHNY-NH2 [hPTH-(2-34)], the “PLC Activity (% Basal), 1000 nM peptide” value in the assay with human PTH-1 receptor [8] is 88 % Basal.

As to SVSEIQLMHNLGKHLNSMERVEWLRKKLQDVHNY-NH2 [hPTH-(1-34)], the “PLC Activity (% Basal), 1000 nM peptide” value with human PTH-1 receptor [8] was 854 % Basal.

SVSEIQLMHNLGKHLNSMERVEWLRKKLQ-NH2 (peptide, UniProt P01270 32-60, looked up) [hPTH-(1-29)]: the “EC50 of PLC activation (IP3 formation), HKRK B7 cells” value with human PTH-1 receptor [3] came to 1000 nM.

For the molecule AVSEIQLMHNLGKHLNSMRRVEWLRKK-NH2 [[Ala^1,Arg^19]hPTH-(1-27)], the “fold improvement of EC50 for AC activation over hPTH-(1-27)” value in the assay with human PTH-1 receptor [3] is 10 fold.
